Laboratory results reported in the nanobody polyreactivity screen of Harvey et al. (2022).

Experiment: yeast display, Sf9 membrane polyspecificity reagent, FACS + sequencing; frameworks hold sequencing errors
Summary of the method: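 Genes from sorted yeast were amplified by colony PCR, read by MiSeq 2 × 250 sequencing and filtered on CDR length. These cells carried a synthetic nanobody library in Saccharomyces cerevisiae BJ5465 and were sorted by FACS into low and high (top ~1%) gates on anti-HA and streptavidin fluorescence. Polyreactivity is labelled according to the gate of origin.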

| Sequence | polyreactivity (PSR sort gate) |
| --- | --- |
| QVQLVESGGGLVQAGGSLRLSCAASGSIFYFNAMGWYRPAPGKERELVAAINISGSSTSYADSVKGRFTISRDNAKNTVYLQMNSLKPEDTAVYYCAAEDEPRILIVRVWDYYWGQGTQVTVSS | low polyreactivity |
| QVQLVESGGGLVQAGGSLRLSCAASGSIFYFNAMGWYRQAPGKERELVAAISTSGGSTYADSVKGRFTISRDNAKNTVYLQMNSLKPEDTAVYYCAADFLTSRSRTFDYWGQGTQVTVSS | low polyreactivity |
| QVQLVESGGGLVQAGGSLRLSCAASGSIFYFNAMGWYRQAPGKERELVAAITASGGRTYYADSVKGRFTISRDNAKNTVYLQMNSLKPEDTAVYYCNAYRPWSWWGEMDYWGQGTQVTVSS | high polyreactivity |
| QVQLVESGGGLVQAGGSLRLSCAASGSIFYFNAMGWYRQAPGKERELVADISWSGGESTYYADSVKGRFTISRDNAKNTVYLQMNSLKPEYTAVYYCAADYWSPYVYVYWGQGTQVTLSS | low polyreactivity |
| QVQLVESGGGLVQAGGSLRLSCAASGSIFYFNAMGWYRQAPGKERELVADITSGGSTYYADSVKGRFTISRDNAKNTVYLQMNSLKPEDTAVYYCNAALPVTRSERYGSDYWGQGTQVTVSS | low polyreactivity |
| QVQLVESGGGLVQAGGSLRLSCAASGSIFYGFDMGWYRQAPGKERELVATISWSSGSSTYYADTVKGRFTISRDNAKNTVYLQMNSLKPEETAVYYCAVDFAIGYRYQGRVDYWGQGTQVTVSS | low polyreactivity |
| QVQLVESGGGLVQAGGSLRLSCAASGSIFYGNAMGWYRQAPGNERESVAGITGSGSRTYYADSVKGRFTISRDNAKITVYLQMNSLKAEDTAVYYCARLTRTSRGLYDYWGQGTQVTVSS | high polyreactivity |
| QVQLVESGGGLVQAGGSLRLSCAASGSIFYGNTMGWYRQAPGKEREFVAAINKSDDSTYYADSVKGRFTISRDNAKNTVYLQMNSLKPEDTAVYYCAADYLGRFDYNYWGQGTQVTVSS | low polyreactivity |
| QVQLVESGGGLVQAGGSLRLSCAASGSIFYGNTMGWYRQAPGKERELVAGITRGGGSTYYADSVKGRFTISRDNAKNTVYLQMNSLKPEDTAVYYCAATFPYHDGDYWGQGTQVTVSS | low polyreactivity |
| QVQLVESGGGLVQAGGSLRLSCAASGSIFYGNVMGWYRQAPGKERELVAAISSSGGSTYYADSVKGRFTISRDTAKNTVYLQMNSLKPEDTAVYYCAAYWWSRVVRGSRYDYWGQGTQVTVSS | low polyreactivity |
| QVQLVESGGGLVQAGGSLRLSCAASGSIFYGYAMGWSRQAPGKERELVAVITDGGGSTYYADSVKGRFTISRDNAKNTVYLQMNSLKPEDTAVYYCAADSWGPYYYSSYSYDYWGQGTQVTVSS | low polyreactivity |
| QVQLVESGGGLVQAGGSLRLSCAASGSIFYGYAMGWYIQAPGKERELVAAISGNGGSTYFADSVKGRFTISRDNAKNTVYLQMNSLKTEDTAVYYCAVEVYHYGYEYDYWGQGTQVTVSS | high polyreactivity |
| QVQLVESGGGLVQAGGSLRLSCAASGSIFYGYAMGWYRPAPGKERELVAAISSGGRTYYADSVKGRFTISRDNAKNTVYLQMNSLKPEDTAVYHCAASYWKPHRESGYDYWGQGTQVTVSS | high polyreactivity |
| QVQLVESGGGLVQAGGSLRLSCAASGSIFYGYAMGWYRQAPGKERELVAAISWSGTSTYYADSVKGRFTISRDNAKNTVYLQMNSLKPEDTAVYYCAADQFQGNSGFEYWGQGTQVTVSS | low polyreactivity |
| QVQLVESGGGLVQAGGSLRLSCAASGSIFYGYAMGWYRQAPGKERELVAAITGGGSTNYADSVKGRFTISRDNAKNTVYLQMNSLKPEDTAVYYCAAAPVSLPDYGYWGQGTQVTVSS | low polyreactivity |
| QVQLVESGGGLVQAGGSLRLSCAASGSIFYGYAMGWYRQAPGKERELVAAITWSGGSTYYADSVKGRFTISRDNAKNTVYLQINSLKPEDTAVYYCNAVSTRFRVRTSDYWGQGTQVTVSS | high polyreactivity |
| QVQLVESGGGLVQAGGSLRLSCAASGSIFYGYAMGWYRQAPGKERELVATITSGDSTNYADSVKGRFTISRDNAKNTVYLQMNSLKPEDTAVYYCAADPAHYVFWYGRYGYDYWGQGTQVTVSS | low polyreactivity |
